# B1: EEHEE_rd4_0003 (parent)
# chain: KKVTINGVEIKFNNPEEAVKFALELAKRLNLRIEFHGDQIKIE
# Variants of: B1
# Experiment: folding stability dG (cDNA display proteolysis); higher = more stable
# Settings: PBS, room temperature
row,Variant,folding stability dG
1,KKVTINGVEIKFNNPEEAVKFALELAKCLNLRIEFHGDQIKIE [R28C],3.28 kcal/mol
2,KKVTINGVEIKFNNPEEAVKFALELAKDLNLRIEFHGDQIKIE [R28D],1.69 kcal/mol
3,KKVTINGVEIKFNNPEEAVKFALELAKELNLRIEFHGDQIKIE [R28E],2.08 kcal/mol
4,KKVTINGVEIKFNNPEEAVKFALELAKFLNLRIEFHGDQIKIE [R28F],2.5 kcal/mol
5,KKVTINGVEIKFNNPEEAVKFALELAKGLNLRIEFHGDQIKIE [R28G],1.91 kcal/mol
6,KKVTINGVEIKFNNPEEAVKFALELAKHLNLRIEFHGDQIKIE [R28H],2.22 kcal/mol
7,KKVTINGVEIKFNNPEEAVKFALELAKILNLRIEFHGDQIKIE [R28I],2.54 kcal/mol
8,KKVTINGVEIKFNNPEEAVKFALELAKKLNLRIEFHGDQIKIE [R28K],2.33 kcal/mol
9,KKVTINGVEIKFNNPEEAVKFALELAKLLNLRIEFHGDQIKIE [R28L],2.57 kcal/mol
10,KKVTINGVEIKFNNPEEAVKFALELAKMLNLRIEFHGDQIKIE [R28M],2.5 kcal/mol
11,KKVTINGVEIKFNNPEEAVKFALELAKNLNLRIEFHGDQIKIE [R28N],1.99 kcal/mol
12,KKVTINGVEIKFNNPEEAVKFALELAKPLNLRIEFHGDQIKIE [R28P],1.29 kcal/mol
13,KKVTINGVEIKFNNPEEAVKFALELAKQLNLRIEFHGDQIKIE [R28Q],2.21 kcal/mol
14,KKVTINGVEIKFNNPEEAVKFALELAKSLNLRIEFHGDQIKIE [R28S],2.35 kcal/mol
15,KKVTINGVEIKFNNPEEAVKFALELAKTLNLRIEFHGDQIKIE [R28T],2.2 kcal/mol
16,KKVTINGVEIKFNNPEEAVKFALELAKVLNLRIEFHGDQIKIE [R28V],2.36 kcal/mol
17,KKVTINGVEIKFNNPEEAVKFALELAKWLNLRIEFHGDQIKIE [R28W],2.68 kcal/mol
18,KKVTINGVEIKFNNPEEAVKFALELAKYLNLRIEFHGDQIKIE [R28Y],2.63 kcal/mol
19,KKVTINGVEIKFNNPEEAVKFALELAKRANLRIEFHGDQIKIE [L29A],1.74 kcal/mol
20,KKVTINGVEIKFNNPEEAVKFALELAKRCNLRIEFHGDQIKIE [L29C],3.71 kcal/mol

row,Variant,folding stability dG
1,KKVTINGVEIKFNNPEEAVKFALELAKRDNLRIEFHGDQIKIE [L29D],1.29 kcal/mol
2,KKVTINGVEIKFNNPEEAVKFALELAKRENLRIEFHGDQIKIE [L29E],1.66 kcal/mol
3,KKVTINGVEIKFNNPEEAVKFALELAKRFNLRIEFHGDQIKIE [L29F],2.65 kcal/mol
4,KKVTINGVEIKFNNPEEAVKFALELAKRGNLRIEFHGDQIKIE [L29G],1.88 kcal/mol
5,KKVTINGVEIKFNNPEEAVKFALELAKRHNLRIEFHGDQIKIE [L29H],2.21 kcal/mol
6,KKVTINGVEIKFNNPEEAVKFALELAKRINLRIEFHGDQIKIE [L29I],1.9 kcal/mol
7,KKVTINGVEIKFNNPEEAVKFALELAKRKNLRIEFHGDQIKIE [L29K],1.6 kcal/mol
8,KKVTINGVEIKFNNPEEAVKFALELAKRMNLRIEFHGDQIKIE [L29M],2.38 kcal/mol
9,KKVTINGVEIKFNNPEEAVKFALELAKRNNLRIEFHGDQIKIE [L29N],1.72 kcal/mol
10,KKVTINGVEIKFNNPEEAVKFALELAKRPNLRIEFHGDQIKIE [L29P],1.52 kcal/mol
11,KKVTINGVEIKFNNPEEAVKFALELAKRQNLRIEFHGDQIKIE [L29Q],1.73 kcal/mol
12,KKVTINGVEIKFNNPEEAVKFALELAKRRNLRIEFHGDQIKIE [L29R],1.43 kcal/mol
13,KKVTINGVEIKFNNPEEAVKFALELAKRSNLRIEFHGDQIKIE [L29S],1.55 kcal/mol
14,KKVTINGVEIKFNNPEEAVKFALELAKRTNLRIEFHGDQIKIE [L29T],1.61 kcal/mol
15,KKVTINGVEIKFNNPEEAVKFALELAKRVNLRIEFHGDQIKIE [L29V],1.77 kcal/mol
16,KKVTINGVEIKFNNPEEAVKFALELAKRWNLRIEFHGDQIKIE [L29W],2.43 kcal/mol
17,KKVTINGVEIKFNNPEEAVKFALELAKRYNLRIEFHGDQIKIE [L29Y],2.67 kcal/mol
18,KKVTINGVEIKFNNPEEAVKFALELAKRLALRIEFHGDQIKIE [N30A],2.23 kcal/mol
19,KKVTINGVEIKFNNPEEAVKFALELAKRLCLRIEFHGDQIKIE [N30C],3.46 kcal/mol
20,KKVTINGVEIKFNNPEEAVKFALELAKRLDLRIEFHGDQIKIE [N30D],1.9 kcal/mol

row,Variant,folding stability dG
1,KKVTINGVEIKFNNPEEAVKFALELAKRLELRIEFHGDQIKIE [N30E],1.86 kcal/mol
2,KKVTINGVEIKFNNPEEAVKFALELAKRLFLRIEFHGDQIKIE [N30F],2.55 kcal/mol
3,KKVTINGVEIKFNNPEEAVKFALELAKRLGLRIEFHGDQIKIE [N30G],2.65 kcal/mol
4,KKVTINGVEIKFNNPEEAVKFALELAKRLHLRIEFHGDQIKIE [N30H],2.47 kcal/mol
5,KKVTINGVEIKFNNPEEAVKFALELAKRLILRIEFHGDQIKIE [N30I],2.34 kcal/mol
6,KKVTINGVEIKFNNPEEAVKFALELAKRLKLRIEFHGDQIKIE [N30K],2.55 kcal/mol
7,KKVTINGVEIKFNNPEEAVKFALELAKRLLLRIEFHGDQIKIE [N30L],2.51 kcal/mol
8,KKVTINGVEIKFNNPEEAVKFALELAKRLMLRIEFHGDQIKIE [N30M],2.43 kcal/mol
9,KKVTINGVEIKFNNPEEAVKFALELAKRLPLRIEFHGDQIKIE [N30P],1.82 kcal/mol
10,KKVTINGVEIKFNNPEEAVKFALELAKRLQLRIEFHGDQIKIE [N30Q],2.38 kcal/mol
11,KKVTINGVEIKFNNPEEAVKFALELAKRLRLRIEFHGDQIKIE [N30R],2.61 kcal/mol
12,KKVTINGVEIKFNNPEEAVKFALELAKRLSLRIEFHGDQIKIE [N30S],2.2 kcal/mol
13,KKVTINGVEIKFNNPEEAVKFALELAKRLTLRIEFHGDQIKIE [N30T],2.12 kcal/mol
14,KKVTINGVEIKFNNPEEAVKFALELAKRLVLRIEFHGDQIKIE [N30V],2.29 kcal/mol
15,KKVTINGVEIKFNNPEEAVKFALELAKRLWLRIEFHGDQIKIE [N30W],2.72 kcal/mol
16,KKVTINGVEIKFNNPEEAVKFALELAKRLYLRIEFHGDQIKIE [N30Y],2.42 kcal/mol
17,KKVTINGVEIKFNNPEEAVKFALELAKRLNARIEFHGDQIKIE [L31A],2.72 kcal/mol
18,KKVTINGVEIKFNNPEEAVKFALELAKRLNCRIEFHGDQIKIE [L31C],2.84 kcal/mol
19,KKVTINGVEIKFNNPEEAVKFALELAKRLNDRIEFHGDQIKIE [L31D],0.559 kcal/mol

# Reference: the MegaScale stability set (Tsuboyama et al. 2023)
